System: Escherichia coli TOP10
Assay: shrunken log2 fold change of peptide-encoding DNA abundance (4.5 h post-induction vs induction); higher = less antimicrobial activity (less host growth inhibition)
Settings: time post-induction: 4.5 h; library: site-saturation at positions 5, 18, 19, 20
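Note: peptides expressed intracellularly from a pBAD plasmid library in pooled LB shake-flask culture, induced with 0.3% L-arabinose, DNA abundance read by NGS, three biological replicates, DESeq2 with apeglm shrinkage.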

RRIRYRPPRLPRPRPRPEFGPRP
shrunken log2 fold change: 0.113

RRIRYRPPRLPRPRPRPEGCPRP
shrunken log2 fold change: 0.204

RRIRYRPPRLPRPRPRPEHDPRP
shrunken log2 fold change: 0.0965

RRIRYRPPRLPRPRPRPEKGPRP
shrunken log2 fold change: -0.00176

RRIRYRPPRLPRPRPRPELHPRP
shrunken log2 fold change: -0.143

RRIRYRPPRLPRPRPRPELQPRP
shrunken log2 fold change: 0.0344

RRIRYRPPRLPRPRPRPELWPRP
shrunken log2 fold change: 0.13

RRIRYRPPRLPRPRPRPEMCPRP
shrunken log2 fold change: -0.238

RRIRYRPPRLPRPRPRPEPSPRP
shrunken log2 fold change: -0.0733

RRIRYRPPRLPRPRPRPEQGPRP
shrunken log2 fold change: -0.00197

RRIRYRPPRLPRPRPRPEQPPRP
shrunken log2 fold change: 0.00487

RRIRYRPPRLPRPRPRPESHPRP
shrunken log2 fold change: -0.226

RRIRYRPPRLPRPRPRPESLPRP
shrunken log2 fold change: -0.0595

RRIRYRPPRLPRPRPRPETAPRP
shrunken log2 fold change: 0.00332

RRIRYRPPRLPRPRPRPETFPRP
shrunken log2 fold change: -0.0918

RRIRYRPPRLPRPRPRPEWDPRP
shrunken log2 fold change: -0.0176

RRIRYRPPRLPRPRPRPFAGPRP
shrunken log2 fold change: 4.12

RRIRYRPPRLPRPRPRPFAKPRP
shrunken log2 fold change: -0.623

RRIRYRPPRLPRPRPRPFAMPRP
shrunken log2 fold change: -0.844

RRIRYRPPRLPRPRPRPFCMPRP
shrunken log2 fold change: -0.604

RRIRYRPPRLPRPRPRPFGFPRP
shrunken log2 fold change: -0.918

RRIRYRPPRLPRPRPRPFGHPRP
shrunken log2 fold change: -0.15

RRIRYRPPRLPRPRPRPFGTPRP
shrunken log2 fold change: -0.158

RRIRYRPPRLPRPRPRPFIVPRP
shrunken log2 fold change: -0.173

RRIRYRPPRLPRPRPRPFKGPRP
shrunken log2 fold change: 0.00253

RRIRYRPPRLPRPRPRPFMSPRP
shrunken log2 fold change: -0.348

RRIRYRPPRLPRPRPRPFMYPRP
shrunken log2 fold change: -1.14

RRIRYRPPRLPRPRPRPFNAPRP
shrunken log2 fold change: -2.15

RRIRYRPPRLPRPRPRPFNTPRP
shrunken log2 fold change: -0.468

RRIRYRPPRLPRPRPRPFQLPRP
shrunken log2 fold change: -0.0518

RRIRYRPPRLPRPRPRPFSDPRP
shrunken log2 fold change: -0.03

RRIRYRPPRLPRPRPRPFVSPRP
shrunken log2 fold change: 0.00884

RRIRYRPPRLPRPRPRPGAKPRP
shrunken log2 fold change: 0.379

RRIRYRPPRLPRPRPRPGAVPRP
shrunken log2 fold change: 0.929

RRIRYRPPRLPRPRPRPGCVPRP
shrunken log2 fold change: -0.202

RRIRYRPPRLPRPRPRPGDVPRP
shrunken log2 fold change: -0.484

RRIRYRPPRLPRPRPRPGDWPRP
shrunken log2 fold change: 0.337

RRIRYRPPRLPRPRPRPGFFPRP
shrunken log2 fold change: -0.205

RRIRYRPPRLPRPRPRPGHHPRP
shrunken log2 fold change: -0.132

RRIRYRPPRLPRPRPRPGHLPRP
shrunken log2 fold change: -0.0798

RRIRYRPPRLPRPRPRPGIGPRP
shrunken log2 fold change: -0.659

RRIRYRPPRLPRPRPRPGKKPRP
shrunken log2 fold change: -0.00101

RRIRYRPPRLPRPRPRPGKLPRP
shrunken log2 fold change: -0.0944

RRIRYRPPRLPRPRPRPGPHPRP
shrunken log2 fold change: -0.115

RRIRYRPPRLPRPRPRPGQFPRP
shrunken log2 fold change: -0.0455

RRIRYRPPRLPRPRPRPGRIPRP
shrunken log2 fold change: 0.0959

RRIRYRPPRLPRPRPRPGSQPRP
shrunken log2 fold change: 0.0113

RRIRYRPPRLPRPRPRPGSTPRP
shrunken log2 fold change: -0.0367

RRIRYRPPRLPRPRPRPGTFPRP
shrunken log2 fold change: -0.53

RRIRYRPPRLPRPRPRPGTQPRP
shrunken log2 fold change: -0.141

RRIRYRPPRLPRPRPRPGWEPRP
shrunken log2 fold change: -0.143

RRIRYRPPRLPRPRPRPHASPRP
shrunken log2 fold change: 0.0262

RRIRYRPPRLPRPRPRPHAYPRP
shrunken log2 fold change: -0.0226

RRIRYRPPRLPRPRPRPHDTPRP
shrunken log2 fold change: -0.313

RRIRYRPPRLPRPRPRPHEVPRP
shrunken log2 fold change: -0.0317

RRIRYRPPRLPRPRPRPHFRPRP
shrunken log2 fold change: -0.444

RRIRYRPPRLPRPRPRPHHNPRP
shrunken log2 fold change: -1.28

RRIRYRPPRLPRPRPRPHIAPRP
shrunken log2 fold change: -0.408

RRIRYRPPRLPRPRPRPHIYPRP
shrunken log2 fold change: -0.725

RRIRYRPPRLPRPRPRPHKDPRP
shrunken log2 fold change: -0.428

RRIRYRPPRLPRPRPRPHLDPRP
shrunken log2 fold change: -0.185

RRIRYRPPRLPRPRPRPHLQPRP
shrunken log2 fold change: -0.388

RRIRYRPPRLPRPRPRPHMDPRP
shrunken log2 fold change: -1.85

RRIRYRPPRLPRPRPRPHNYPRP
shrunken log2 fold change: -0.365

RRIRYRPPRLPRPRPRPHPVPRP
shrunken log2 fold change: -0.185

RRIRYRPPRLPRPRPRPHQKPRP
shrunken log2 fold change: -0.248

RRIRYRPPRLPRPRPRPHSAPRP
shrunken log2 fold change: -0.121

RRIRYRPPRLPRPRPRPHSDPRP
shrunken log2 fold change: -0.0292

RRIRYRPPRLPRPRPRPHSPPRP
shrunken log2 fold change: -0.0755

RRIRYRPPRLPRPRPRPHTLPRP
shrunken log2 fold change: -0.959

RRIRYRPPRLPRPRPRPHTNPRP
shrunken log2 fold change: -0.661

RRIRYRPPRLPRPRPRPHTWPRP
shrunken log2 fold change: -0.0877

RRIRYRPPRLPRPRPRPHWMPRP
shrunken log2 fold change: -0.233

RRIRYRPPRLPRPRPRPHYLPRP
shrunken log2 fold change: -0.285

RRIRYRPPRLPRPRPRPICEPRP
shrunken log2 fold change: -0.404

RRIRYRPPRLPRPRPRPICPPRP
shrunken log2 fold change: -0.471

RRIRYRPPRLPRPRPRPICWPRP
shrunken log2 fold change: 0.142

RRIRYRPPRLPRPRPRPIFGPRP
shrunken log2 fold change: -0.281

RRIRYRPPRLPRPRPRPIFSPRP
shrunken log2 fold change: -1.43

RRIRYRPPRLPRPRPRPIHPPRP
shrunken log2 fold change: -0.418

RRIRYRPPRLPRPRPRPIHTPRP
shrunken log2 fold change: -0.379

RRIRYRPPRLPRPRPRPIILPRP
shrunken log2 fold change: -0.605

RRIRYRPPRLPRPRPRPILAPRP
shrunken log2 fold change: -0.353

RRIRYRPPRLPRPRPRPILEPRP
shrunken log2 fold change: 0.0174

RRIRYRPPRLPRPRPRPILQPRP
shrunken log2 fold change: 0.049

RRIRYRPPRLPRPRPRPIPSPRP
shrunken log2 fold change: -0.0334

RRIRYRPPRLPRPRPRPIRQPRP
shrunken log2 fold change: -0.0123

RRIRYRPPRLPRPRPRPISGPRP
shrunken log2 fold change: 0.0356

RRIRYRPPRLPRPRPRPIVPPRP
shrunken log2 fold change: 0.0202

RRIRYRPPRLPRPRPRPIVWPRP
shrunken log2 fold change: 0.0267

RRIRYRPPRLPRPRPRPIYGPRP
shrunken log2 fold change: -0.428

RRIRYRPPRLPRPRPRPIYVPRP
shrunken log2 fold change: -1.88

RRIRYRPPRLPRPRPRPIYYPRP
shrunken log2 fold change: -0.461

RRIRYRPPRLPRPRPRPKCTPRP
shrunken log2 fold change: -0.0162

RRIRYRPPRLPRPRPRPKCYPRP
shrunken log2 fold change: -0.112

RRIRYRPPRLPRPRPRPKDGPRP
shrunken log2 fold change: -0.613

RRIRYRPPRLPRPRPRPKDRPRP
shrunken log2 fold change: -0.109

RRIRYRPPRLPRPRPRPKEIPRP
shrunken log2 fold change: -0.0434

RRIRYRPPRLPRPRPRPKETPRP
shrunken log2 fold change: -0.00674

RRIRYRPPRLPRPRPRPKIRPRP
shrunken log2 fold change: 0.0107

RRIRYRPPRLPRPRPRPKKTPRP
shrunken log2 fold change: -0.0419

RRIRYRPPRLPRPRPRPKLWPRP
shrunken log2 fold change: 0.64

RRIRYRPPRLPRPRPRPKMEPRP
shrunken log2 fold change: -0.529

RRIRYRPPRLPRPRPRPKMKPRP
shrunken log2 fold change: -0.404

RRIRYRPPRLPRPRPRPKNDPRP
shrunken log2 fold change: -0.737

RRIRYRPPRLPRPRPRPKPAPRP
shrunken log2 fold change: -0.0511

RRIRYRPPRLPRPRPRPKPGPRP
shrunken log2 fold change: 0.221

RRIRYRPPRLPRPRPRPKPSPRP
shrunken log2 fold change: 0.433

RRIRYRPPRLPRPRPRPKQHPRP
shrunken log2 fold change: -0.304

RRIRYRPPRLPRPRPRPKQNPRP
shrunken log2 fold change: -0.473

RRIRYRPPRLPRPRPRPKQPPRP
shrunken log2 fold change: 0.102

RRIRYRPPRLPRPRPRPKRHPRP
shrunken log2 fold change: -0.159

RRIRYRPPRLPRPRPRPKRSPRP
shrunken log2 fold change: -0.113

RRIRYRPPRLPRPRPRPKRTPRP
shrunken log2 fold change: -0.0162

RRIRYRPPRLPRPRPRPKVTPRP
shrunken log2 fold change: -0.114

RRIRYRPPRLPRPRPRPKWAPRP
shrunken log2 fold change: -0.0552

RRIRYRPPRLPRPRPRPKWKPRP
shrunken log2 fold change: -0.0135

RRIRYRPPRLPRPRPRPKWTPRP
shrunken log2 fold change: -0.298

RRIRYRPPRLPRPRPRPKYKPRP
shrunken log2 fold change: -0.78

RRIRYRPPRLPRPRPRPLCCPRP
shrunken log2 fold change: -0.391

RRIRYRPPRLPRPRPRPLCNPRP
shrunken log2 fold change: -0.0925

RRIRYRPPRLPRPRPRPLDCPRP
shrunken log2 fold change: -0.068

RRIRYRPPRLPRPRPRPLDRPRP
shrunken log2 fold change: -0.182

RRIRYRPPRLPRPRPRPLEKPRP
shrunken log2 fold change: 0.0601

RRIRYRPPRLPRPRPRPLFWPRP
shrunken log2 fold change: -0.214

RRIRYRPPRLPRPRPRPLGKPRP
shrunken log2 fold change: -0.192

RRIRYRPPRLPRPRPRPLHPPRP
shrunken log2 fold change: -0.0607

RRIRYRPPRLPRPRPRPLKHPRP
shrunken log2 fold change: -1.82

RRIRYRPPRLPRPRPRPLLLPRP
shrunken log2 fold change: -0.586

RRIRYRPPRLPRPRPRPLLTPRP
shrunken log2 fold change: -0.647

RRIRYRPPRLPRPRPRPLQFPRP
shrunken log2 fold change: -0.537

RRIRYRPPRLPRPRPRPLQMPRP
shrunken log2 fold change: -0.209

RRIRYRPPRLPRPRPRPLRTPRP
shrunken log2 fold change: -0.151

RRIRYRPPRLPRPRPRPLSAPRP
shrunken log2 fold change: -0.542

RRIRYRPPRLPRPRPRPLSMPRP
shrunken log2 fold change: -0.036

RRIRYRPPRLPRPRPRPLTGPRP
shrunken log2 fold change: -0.023

RRIRYRPPRLPRPRPRPLVCPRP
shrunken log2 fold change: -0.325

RRIRYRPPRLPRPRPRPLVYPRP
shrunken log2 fold change: -1.16

RRIRYRPPRLPRPRPRPLWGPRP
shrunken log2 fold change: -0.203

RRIRYRPPRLPRPRPRPMADPRP
shrunken log2 fold change: -0.0453

RRIRYRPPRLPRPRPRPMCEPRP
shrunken log2 fold change: -0.283

RRIRYRPPRLPRPRPRPMCIPRP
shrunken log2 fold change: -0.101

RRIRYRPPRLPRPRPRPMCKPRP
shrunken log2 fold change: -0.368

RRIRYRPPRLPRPRPRPMCLPRP
shrunken log2 fold change: -0.0113

RRIRYRPPRLPRPRPRPMDFPRP
shrunken log2 fold change: -0.205

RRIRYRPPRLPRPRPRPMFAPRP
shrunken log2 fold change: -0.117

RRIRYRPPRLPRPRPRPMFIPRP
shrunken log2 fold change: -0.908

RRIRYRPPRLPRPRPRPMFNPRP
shrunken log2 fold change: -1.14

RRIRYRPPRLPRPRPRPMFQPRP
shrunken log2 fold change: -0.136

RRIRYRPPRLPRPRPRPMGDPRP
shrunken log2 fold change: -0.0018

Source: the supplement of paper PMC9112550, “Optimization of the antimicrobial peptide Bac7 by deep mutational scanning” (BMC Biology, 2022)
